Experimental data as given in article PMC4897640, “Functional diversity of family 3 β-glucosidases from thermophilic cellulolytic fungus Humicola insolens Y1” (Scientific Reports, 2016).

Experiments:
[1] = target: HiBgl3A (Mycothermus thermophilus, UniProt A0A191KCR1); assay: pNPG hydrolysis, Dixon plot; assay type: biochemical; conditions: read-out: Ki (mM) / pNPG; substrate pNPG 0.75 and 1 mM, glucose 5-50 mM; product inhibition, mode not stated
[2] = target: T1, HiBgl3C (Mycothermus thermophilus, UniProt A0A191KCR0); assay: pNPG hydrolysis, Dixon plot; assay type: biochemical; conditions: read-out: Ki (mM) / pNPG; substrate pNPG 0.75 and 1 mM, glucose 5-50 mM; product inhibition, mode not stated
T1 construct: the same GenBank number is also printed for Hibgl3B
T1 sequence (A0A191KCR0 18-733): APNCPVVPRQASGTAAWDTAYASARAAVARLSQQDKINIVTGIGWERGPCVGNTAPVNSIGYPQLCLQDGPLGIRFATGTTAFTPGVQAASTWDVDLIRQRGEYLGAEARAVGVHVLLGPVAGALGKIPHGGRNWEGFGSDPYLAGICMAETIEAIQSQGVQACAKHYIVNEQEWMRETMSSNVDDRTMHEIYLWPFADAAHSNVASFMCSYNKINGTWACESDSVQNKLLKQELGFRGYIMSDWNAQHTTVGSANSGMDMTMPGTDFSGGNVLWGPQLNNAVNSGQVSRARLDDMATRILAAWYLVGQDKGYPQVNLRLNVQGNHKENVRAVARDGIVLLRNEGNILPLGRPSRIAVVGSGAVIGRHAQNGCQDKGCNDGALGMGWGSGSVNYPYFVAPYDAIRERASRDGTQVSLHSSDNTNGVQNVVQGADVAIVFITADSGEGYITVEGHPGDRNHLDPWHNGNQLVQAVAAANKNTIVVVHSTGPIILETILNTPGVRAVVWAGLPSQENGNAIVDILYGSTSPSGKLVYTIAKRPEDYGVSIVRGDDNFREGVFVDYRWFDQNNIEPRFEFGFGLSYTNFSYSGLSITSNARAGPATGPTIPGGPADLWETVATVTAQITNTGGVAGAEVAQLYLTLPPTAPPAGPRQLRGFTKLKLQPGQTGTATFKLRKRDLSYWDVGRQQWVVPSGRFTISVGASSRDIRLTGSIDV

[3] = target: T2, HiBgl3B (Mycothermus thermophilus, UniProt A0A191KCR2); assay: pNPG hydrolysis, Dixon plot; assay type: biochemical; conditions: read-out: Ki (mM) / pNPG; substrate pNPG 0.75 and 1 mM, glucose 5-50 mM; product inhibition, mode not stated
T2 construct: GenBank printed as KT203372, same as Hibgl3C, so probably a misprint of KT203371

[4] = substrate: O=[N+]([O-])c1ccc(O[C@@H]2O[C@H](CO)[C@@H](O)[C@H](O)[C@H]2O)cc1; assay: purified protein; conditions: 100 mM Na2HPO4-citric acid
[5] = optimal conditions (pH 6.0, 50 °C), pH 6.0, 50.0 °C

HiBgl3A, sequence (A0A191KCR1 entry or part of it): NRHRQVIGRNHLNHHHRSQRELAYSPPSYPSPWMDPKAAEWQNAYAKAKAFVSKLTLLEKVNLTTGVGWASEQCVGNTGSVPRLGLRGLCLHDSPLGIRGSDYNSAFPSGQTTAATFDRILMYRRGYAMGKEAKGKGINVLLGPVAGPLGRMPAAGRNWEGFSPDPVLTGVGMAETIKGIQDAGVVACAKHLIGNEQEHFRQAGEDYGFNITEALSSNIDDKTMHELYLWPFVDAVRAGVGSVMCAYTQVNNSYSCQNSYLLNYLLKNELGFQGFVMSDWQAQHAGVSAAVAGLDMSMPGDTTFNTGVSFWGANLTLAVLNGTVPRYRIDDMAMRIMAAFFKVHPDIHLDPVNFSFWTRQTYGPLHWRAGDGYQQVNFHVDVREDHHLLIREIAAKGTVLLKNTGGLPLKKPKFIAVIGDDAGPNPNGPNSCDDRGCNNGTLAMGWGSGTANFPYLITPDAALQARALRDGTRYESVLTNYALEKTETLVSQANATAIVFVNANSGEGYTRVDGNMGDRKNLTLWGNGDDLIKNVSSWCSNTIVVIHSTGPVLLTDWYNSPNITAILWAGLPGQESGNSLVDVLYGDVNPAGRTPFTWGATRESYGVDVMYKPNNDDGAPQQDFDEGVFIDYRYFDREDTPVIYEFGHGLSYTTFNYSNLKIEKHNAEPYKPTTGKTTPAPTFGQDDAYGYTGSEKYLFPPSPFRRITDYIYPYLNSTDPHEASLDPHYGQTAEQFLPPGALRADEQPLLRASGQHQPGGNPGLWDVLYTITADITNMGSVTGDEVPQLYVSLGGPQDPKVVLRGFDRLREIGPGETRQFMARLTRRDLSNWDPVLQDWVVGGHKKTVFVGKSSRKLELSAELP

Molecule `OC[C@H]1OC(O)[C@H](O)[C@@H](O)[C@@H]1O` (some centres unmarked) [glucose] has a Ki [1] of 25 mM, a Ki [2] of 37.1 mM and a Ki [3] of 55.2 mM.

B1: HiBgl3B (Mycothermus thermophilus) (protein)
chain: RVVEPRDPVPQGYHAASYYPAPHGGWVSSWREAYEKAYALVSQMTLAEKVNITSGVGIYMGPCVGNTGSVDRLGFPQLCLQDSALGVASADNVTAFPAGITTGATWDKQLMYARGVAIGKEFRGKGANIHLGPSVGPLGRKPLGGRNWEGFGSDPVLQGKAAALHIRGVQEQGIIATIKHLVGNEQEMYRMYHIFQEGYSANIDDRTLHELYLWPFAEAVRAGVGAAMTAYNAVNGSACSQNSYLINGILKDELGFQGLVMSDWLSHISGVGSALAGLDLNMPGDTNIPLFGNSLWQYELTRAVLNGSVPVDRLNDMATRVVATWYKFGQDKNHPRPNFSSNTRSRDGPLYPGALFSPSGQVNWFVNVQEDHYLVARQVAQDAITLLKNNDSLLPLDAGDLTGGKLSVFGTDAQVNPDGPNSCLARACNKGTLGMGWGSGIADYPYMDDPIGAIRKRVPDVKFYNTDSFPWFFGTPENDEVAMVFISSDSGENTLTVEGNHGDRDSAKLRAWHDGDKLVQKVAEKFKNVIVVVHTVGPLDLEPWIELPSVKAVLFAHLPGQEAGESLTNVLFGDVSPSGHLPYSITRKASDLPDSIANLKGFTWGQVQDTYSEGLYIDYRYLQKHSIQPRFAFGHGLSYTNFSFTNATIRAITTPLSVTPPAPPATRPASVVAKYSTDIPPASEAYEPAGFSRIWRYLYPWLSKSDADAAHAIGTSKSKTYPYPPGYSTVQRASFPPAGGGEGGNPALWDVAYEVTVRVTNTGKRPGKASAQLYLQFPEGIEYDTPVLQLRDFEKTKELQPGESQELKLTLTRKDVSVWDVRRQNWVVPTAIDDKKGFTAWVGEASDKLKVACYTGEGRCVEGAKQPV
In the case of B1, the Km [4, 5] is reported as 1510 µM, the Vmax [4, 5] is reported as 25.5 µmol/min/mg and the kcat [4, 5] is reported as 40.4 s⁻¹. The kcat/Km [4, 5] was 26800 M⁻¹ s⁻¹.

B2: HiBgl3B (Mycothermus thermophilus; I81W) (protein)
chain: RVVEPRDPVPQGYHAASYYPAPHGGWVSSWREAYEKAYALVSQMTLAEKVNITSGVGWYMGPCVGNTGSVDRLGFPQLCLQDSALGVASADNVTAFPAGITTGATWDKQLMYARGVAIGKEFRGKGANIHLGPSVGPLGRKPLGGRNWEGFGSDPVLQGKAAALHIRGVQEQGIIATIKHLVGNEQEMYRMYHIFQEGYSANIDDRTLHELYLWPFAEAVRAGVGAAMTAYNAVNGSACSQNSYLINGILKDELGFQGLVMSDWLSHISGVGSALAGLDLNMPGDTNIPLFGNSLWQYELTRAVLNGSVPVDRLNDMATRVVATWYKFGQDKNHPRPNFSSNTRSRDGPLYPGALFSPSGQVNWFVNVQEDHYLVARQVAQDAITLLKNNDSLLPLDAGDLTGGKLSVFGTDAQVNPDGPNSCLARACNKGTLGMGWGSGIADYPYMDDPIGAIRKRVPDVKFYNTDSFPWFFGTPENDEVAMVFISSDSGENTLTVEGNHGDRDSAKLRAWHDGDKLVQKVAEKFKNVIVVVHTVGPLDLEPWIELPSVKAVLFAHLPGQEAGESLTNVLFGDVSPSGHLPYSITRKASDLPDSIANLKGFTWGQVQDTYSEGLYIDYRYLQKHSIQPRFAFGHGLSYTNFSFTNATIRAITTPLSVTPPAPPATRPASVVAKYSTDIPPASEAYEPAGFSRIWRYLYPWLSKSDADAAHAIGTSKSKTYPYPPGYSTVQRASFPPAGGGEGGNPALWDVAYEVTVRVTNTGKRPGKASAQLYLQFPEGIEYDTPVLQLRDFEKTKELQPGESQELKLTLTRKDVSVWDVRRQNWVVPTAIDDKKGFTAWVGEASDKLKVACYTGEGRCVEGAKQPV
For B2, the Km ([4]; optimal conditions) was 1990 µM, the Vmax ([4]; optimal conditions) was 2.03 µmol/min/mg and the kcat ([4]; optimal conditions) was 3.21 s⁻¹. It also gave a kcat/Km ([4]; optimal conditions) of 1610 M⁻¹ s⁻¹.
